Assay [1] has as its target FPR-GFP fusion protein (human; Aequorea victoria) (UniProt P21462). The assay can be described thus: flow cytometry, LRG assembly of 30 nM FPR-GFP on αβγ DCNi beads, ligand varied (FIG. 13B); exponent printed as 10^6, read as 10^-6. (Flow cytometry measures light scatter and fluorescence of single cells or particles in a stream.)
The target in assay [2] is β2-adrenergic receptor-green fluorescent protein fusion protein (β2AR-GFP) (human; Aequorea victoria) (UniProt P07550). The assay can be described thus: flow cytometry, soluble Gαsβ1γ2 competing with bead-borne Gαsβ1γ2 for isoproterenol-bound β2AR-GFP (FIG. 4E).
For assay [3], the target named is hexahistidine-tagged G protein heterotrimer Gαsβ1γ2 (human) (UniProt P63092). Put plainly: flow cytometry, ARG assembly of 20 nM β2AR-GFP on Gαsβ1γ2 Ni beads, receptor occupied by salbutamol (FIG. 5B).
Assay [4] has the same target. The assay can be described thus: flow cytometry, ARG assembly of 20 nM β2AR-GFP on Gαsβ1γ2 Ni beads, receptor occupied by dobutamine (FIG. 5B).
For assay [5] the target is unchanged. Put plainly: flow cytometry, Gαsβ1γ2 on Ni beads, 40 nM β2AR-GFP with 1 mM isoproterenol; background with 0.1 mM GTPγS about 10,000 β2AR-GFP/bead.

hexahistidine-tagged G protein heterotrimer Gαsβ1γ2 (human), sequence (P63092 other isoform, or with tags, fused parts or gaps, chain 1 of 3): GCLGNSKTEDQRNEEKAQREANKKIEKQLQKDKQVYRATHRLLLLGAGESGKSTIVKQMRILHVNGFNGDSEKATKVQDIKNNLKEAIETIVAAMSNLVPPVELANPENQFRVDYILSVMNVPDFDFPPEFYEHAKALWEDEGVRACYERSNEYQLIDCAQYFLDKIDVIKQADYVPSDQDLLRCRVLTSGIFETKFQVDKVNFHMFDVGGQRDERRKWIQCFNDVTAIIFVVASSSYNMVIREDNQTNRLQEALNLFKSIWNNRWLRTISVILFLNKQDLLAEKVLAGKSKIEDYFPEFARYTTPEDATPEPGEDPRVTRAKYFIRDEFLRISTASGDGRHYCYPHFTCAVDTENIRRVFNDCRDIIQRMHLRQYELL
hexahistidine-tagged G protein heterotrimer Gαsβ1γ2 (human), sequence (P62873 2-340, chain 2 of 3, further chain): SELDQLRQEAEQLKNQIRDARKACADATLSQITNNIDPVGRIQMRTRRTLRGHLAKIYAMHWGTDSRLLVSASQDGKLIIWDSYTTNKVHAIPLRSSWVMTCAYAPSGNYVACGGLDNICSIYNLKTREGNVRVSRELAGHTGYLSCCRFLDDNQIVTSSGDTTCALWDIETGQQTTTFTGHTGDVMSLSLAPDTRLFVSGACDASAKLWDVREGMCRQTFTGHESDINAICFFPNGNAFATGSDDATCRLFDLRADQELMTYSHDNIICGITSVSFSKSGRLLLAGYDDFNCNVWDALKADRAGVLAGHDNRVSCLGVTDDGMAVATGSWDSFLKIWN
hexahistidine-tagged G protein heterotrimer Gαsβ1γ2 (human), sequence (P59768 other isoform, or with tags, fused parts or gaps, chain 3 of 3, further chain): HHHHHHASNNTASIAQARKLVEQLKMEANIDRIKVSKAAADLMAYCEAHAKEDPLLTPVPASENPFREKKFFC

One may read the EC50 as the concentration that produces a half-maximal response. Substance fML (peptide) returned an EC50 in assay [1] of 5.3 µM.
As a reminder, the Kd is the free concentration of one partner at which half of the binding sites on the other are occupied at equilibrium, for simple one-to-one binding. Read a high Kd as lower affinity. In assay [2], “hexahistidine-tagged G protein heterotrimer Gαsβ1γ2 (from UniProt P63092 2-380; P62873 2-340; P59768 2-68)” returned a dissociation constant Kd of 90 to 110 nM.
With “β2-adrenergic receptor-green fluorescent protein fusion protein (β2AR-GFP) (from UniProt P07550 1-413; P42212 1-238)”, the results for the ARG/bead level against the full agonist isoproterenol in assay [3] and in assay [4] were 30 percent and 10 percent, respectively. Besides, the total fluorescence, β2AR-GFP/bead (β2AR-GFP/bead) in assay [5] turned out to be 80000.

(Values after patent US7232659.)
